In patent US20080058263A1 (published 2008):

T1: VEGFR-3-Fc (UniProt P35916 25-328)
T1 construct: domain: first three Ig domains; conditioned supernatant of 293T cells; also called VEGFR-3-Fc fusion protein; not shown: Fc fragment of the pIg vector
T1 sequence (looked up): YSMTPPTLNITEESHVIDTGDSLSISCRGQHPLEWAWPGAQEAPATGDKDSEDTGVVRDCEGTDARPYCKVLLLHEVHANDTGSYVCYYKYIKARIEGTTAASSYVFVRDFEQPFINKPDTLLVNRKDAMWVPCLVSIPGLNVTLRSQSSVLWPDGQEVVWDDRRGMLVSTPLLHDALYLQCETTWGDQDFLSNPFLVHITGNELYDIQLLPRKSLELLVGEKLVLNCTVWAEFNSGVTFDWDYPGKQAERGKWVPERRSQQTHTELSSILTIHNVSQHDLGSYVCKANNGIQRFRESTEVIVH


Experiments:
Experiment in all cases: receptor-Fc IP
[1] = target: T1, VEGFR-3-Fc
Procedure, shortened: (§1)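 Binding of ligand from sample supernatant measured by pentahistidine-antibody immunoprecipitation. IP mix: PBS with 1.5% BSA, 0.06% Tween 20, 3 μg/ml heparin and 400 ng/ml fusion protein, added 1:2 to sample supernatant.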

[2] = target: T2, VEGFR-2-Fc (UniProt P35968 20-322)
T2 construct: domain: first 3 Ig domains; conditioned supernatant of 293T cells; also called VEGFR-2-Fc fusion protein; not shown: Fc fragment of the pIg vector
Procedure, shortened: as §1

[3] = target: T3, VEGFR-1-Fc (UniProt P17948 27-338)
T3 construct: domain: first three Ig domains; expressed in Drosophila S2 cells, purified on Protein A sepharose; also called VEGFR-1-Fc fusion protein; not shown: Fc fragment from the Signal-pIgPlus vector
Procedure, shortened: as §1

T3 sequence (P17948 27-338): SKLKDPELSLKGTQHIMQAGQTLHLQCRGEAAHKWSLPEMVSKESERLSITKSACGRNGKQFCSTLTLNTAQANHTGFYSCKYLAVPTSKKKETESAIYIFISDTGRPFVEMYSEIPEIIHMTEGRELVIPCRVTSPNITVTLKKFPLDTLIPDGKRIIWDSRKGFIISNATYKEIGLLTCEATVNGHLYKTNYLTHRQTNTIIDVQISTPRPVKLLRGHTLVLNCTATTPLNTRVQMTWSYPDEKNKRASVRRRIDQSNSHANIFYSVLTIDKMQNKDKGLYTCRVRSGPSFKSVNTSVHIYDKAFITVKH
T2 sequence (P35968 20-322): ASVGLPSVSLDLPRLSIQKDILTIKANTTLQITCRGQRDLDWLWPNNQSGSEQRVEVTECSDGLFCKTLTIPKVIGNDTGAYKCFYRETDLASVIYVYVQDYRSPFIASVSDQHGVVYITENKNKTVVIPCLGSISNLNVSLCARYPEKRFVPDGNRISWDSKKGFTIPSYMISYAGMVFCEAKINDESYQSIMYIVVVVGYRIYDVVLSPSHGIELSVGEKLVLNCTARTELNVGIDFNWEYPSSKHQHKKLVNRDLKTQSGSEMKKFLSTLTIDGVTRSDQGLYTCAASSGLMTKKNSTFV

binding result [1] | binding result [2] | binding result [3] | Binder
no binding | no binding | no binding | 44-10 (ligand) AHYNTEILKFMDVYQRSYCHPREVCIDVGKEFGVATNTFFKPSCVPLMRCGGCCNDEGLECMNTSTSYLSKTLFEITVPLSQGPKPVTISFLQHNKCECRPKKD
no binding | no binding | no binding | 44-16 (ligand) AHYNTEILKFMDVYQRSYCHPREVCIDVGKEFGVATNTFFKPSCVPLMRCGGCCNSEGLQCMNTSTSYLSKTLFEITVPLSQGPKPVTISFANHTSCRCMSKLD
no binding | no binding | no binding | 44-12 (ligand) AHYNTEILKFMDVYQRSYCHPREVCIDVGKEFGVATNTFFKPSCVPLMRCGGCCNSEGLQCMNTSTSYLSKTLFEITVPLSQGPKPVTISFLQHNKCECRPKKD
no binding | no binding | no binding | 64-12 (ligand) GQNHHEVVKFMDVYQRSYCHPREVCIDVGKEFGVATNTFFKPSCVPLMRCGGCCNSEGLQCMNTSTSYLSKTLFEITVPLSQGPKPVTISFLQHNKCECRPKKD
no binding | no binding | no binding | 54-10 (ligand) AHYNTEILKSIDNEWRKTQCMPIETLVDIFQEFGVATNTFFKPSCVPLMRCGGCCNDEGLECMNTSTSYLSKTLFEITVPLSQGPKPVTISFLQHNKCECRPKKD
no binding | no binding | no binding | 24-2 (ligand) AHYNTEILKSIDNEWRKTQCMPREVCIDVGKEFGVATNTFFKPSCVPLMRCGGCCNDEGLECMNTSTSYLSKTLFEIKPHQGQHIGEMSFLQHNKCECRPKKD
no binding | no binding | no binding | 44-11 (ligand) AHYNTEILKFMDVYQRSYCHPREVCIDVGKEFGVATNTFFKPSCVPLMRCGGCCNSEGLQCVPTEESNITMQIMRITVPLSQGPKPVTISFLQHNKCECRPKKD
no binding | no binding | no binding | 64-9 (ligand) GQNHHEVVKFMDVYQRSYCHPREVCIDVGKEFGVATNTFFKPSCVPLMRCGGCCNDEGLECVPTEESNITMQIMRITVPLSQGPKPVTISFLQHNKCECRPKKD
no binding | no binding | no binding | 44-13 (ligand) AHYNTEILKFMDVYQRSYCHPREVCIDVGKEFGVATNTFFKPSCVPLMRCGGCCNDEGLECVPTEESNITMQIMRITVPLSQGPKPVTISFANHTSCRCMSKLD
no binding | no binding | no binding | 44-15 (ligand) AHYNTEILKFMDVYQRSYCHPREVCIDVGKEFGVATNTFFKPSCVPLMRCGGCCNSEGLQCVPTEESNITMQIMRITVPLSQGPKPVTISFANHTSCRCMSKLD
no binding | no binding | no binding | 64-11 (ligand) GQNHHEVVKFMDVYQRSYCHPREVCIDVGKEFGVATNTFFKPSCVPLMRCGGCCNSEGLQCVPTEESNITMQIMRITVPLSQGPKPVTISFLQHNKCECRPKKD

More lines, now with the values behind:

Binder | binding result [1] | binding result [2] | binding result [3]
64-2 (ligand) GQNHHEVVKFMDVYQRSYCHPREVCIDVGKEFGVATNTFFKPSCVPLMRCGGCCNDEGLECMNTSTSYLSKTLFEIKPHQGQHIGEMSFLQHNKCECRPKKD | no binding | no binding | no binding
64-6 (ligand) GQNHHEVVKFMDVYQRSYCHPREVCIDVGKEFGVATNTFFKPSCVPLMRCGGCCNDEGLECMNTSTSYLSKTLFEIKPHQGQHIGEMSFANHTSCRCMSKLD | no binding | no binding | no binding
64-4 (ligand) GQNHHEVVKFMDVYQRSYCHPREVCIDVGKEFGVATNTFFKPSCVPLMRCGGCCNSEGLQCMNTSTSYLSKTLFEIKPHQGQHIGEMSFLQHNKCECRPKKD | no binding | no binding | no binding
54-1 (ligand) AHYNTEILKSIDNEWRKTQCMPIETLVDIFQEFGVATNTFFKPSCVPLMRCGGCCNDEGLECVPTEESNITMQIMRIKPHQGQHIGEMSFLQHNKCECRPKKD | no binding | no binding | no binding
54-3 (ligand) AHYNTEILKSIDNEWRKTQCMPIETLVDIFQEFGVATNTFFKPSCVPLMRCGGCCNSEGLQCVPTEESNITMQIMRIKPHQGQHIGEMSFLQHNKCECRPKKD | no binding | no binding | no binding
83-6 (ligand) AHYNTEILKFMDVYQRSYCHPIETLVDIFQEYPDEIEYIFKPPCVSVYRCGGCCNDEGLECMNTSTSYLSKTLFEIKPHQGQHIGEMSFANHTSCRCMSKLD | no binding | no binding | no binding
54-9 (ligand) AHYNTEILKSIDNEWRKTQCMPIETLVDIFQEFGVATNTFFKPSCVPLMRCGGCCNDEGLECVPTEESNITMQIMRITVPLSQGPKPVTISFLQHNKCECRPKKD | no binding | no binding | no binding
54-11 (ligand) AHYNTEILKSIDNEWRKTQCMPIETLVDIFQEFGVATNTFFKPSCVPLMRCGGCCNSEGLQCVPTEESNITMQIMRITVPLSQGPKPVTISFLQHNKCECRPKKD | no binding | no binding | no binding
54-13 (ligand) AHYNTEILKSIDNEWRKTQCMPIETLVDIFQEFGVATNTFFKPSCVPLMRCGGCCNDEGLECVPTEESNITMQIMRITVPLSQGPKPVTISFANHTSCRCMSKLD | no binding | no binding | no binding
54-15 (ligand) AHYNTEILKSIDNEWRKTQCMPIETLVDIFQEFGVATNTFFKPSCVPLMRCGGCCNSEGLQCVPTEESNITMQIMRITVPLSQGPKPVTISFANHTSCRCMSKLD | no binding | no binding | no binding
64-1 (ligand) GQNHHEVVKFMDVYQRSYCHPREVCIDVGKEFGVATNTFFKPSCVPLMRCGGCCNDEGLECVPTEESNITMQIMRIKPHQGQHIGEMSFLQHNKCECRPKKD | no binding | no binding | no binding
64-5 (ligand) GQNHHEVVKFMDVYQRSYCHPREVCIDVGKEFGVATNTFFKPSCVPLMRCGGCCNDEGLECVPTEESNITMQIMRIKPHQGQHIGEMSFANHTSCRCMSKLD | no binding | no binding | no binding
64-7 (ligand) GQNHHEVVKFMDVYQRSYCHPREVCIDVGKEFGVATNTFFKPSCVPLMRCGGCCNSEGLQCVPTEESNITMQIMRIKPHQGQHIGEMSFANHTSCRCMSKLD | no binding | no binding | no binding
64-3 (ligand) GQNHHEVVKFMDVYQRSYCHPREVCIDVGKEFGVATNTFFKPSCVPLMRCGGCCNSEGLQCVPTEESNITMQIMRIKPHQGQHIGEMSFLQHNKCECRPKKD | no binding | no binding | no binding
